As usually defined, the Kd is the equilibrium constant for the complex coming apart. A word on the koff: it is the rate constant with which the complex falls apart. In general, kon refers to the rate constant with which the complex forms. Read a low kon as slow association.

The target in assay [1] is T1, 生长刺激表达基因2蛋白(ST2)抗原 (UniProt Q01638-2 19-328, limits assumed).
T1 construct: also called sST2; IL1RL1
T1 sequence (looked up): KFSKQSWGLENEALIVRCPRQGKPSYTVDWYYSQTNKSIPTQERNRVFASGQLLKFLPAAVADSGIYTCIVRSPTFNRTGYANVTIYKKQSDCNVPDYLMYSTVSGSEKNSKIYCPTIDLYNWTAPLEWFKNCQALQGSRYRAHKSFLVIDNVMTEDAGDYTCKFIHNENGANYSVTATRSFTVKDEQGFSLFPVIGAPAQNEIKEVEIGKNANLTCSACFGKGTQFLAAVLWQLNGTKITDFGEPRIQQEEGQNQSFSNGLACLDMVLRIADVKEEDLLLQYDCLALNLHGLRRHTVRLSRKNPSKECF
Put plainly: sandwich ELISA, antibody at 31.250 ng/ml captured on goat anti-mouse IgG, ST2 antigen, HRP anti-ST2 mAb detection. Background: An ELISA detects its analyte on a solid surface through an enzyme-linked reagent.

The target in assay [2] is T1, 生长刺激表达基因2蛋白(ST2)抗原. Put plainly: sandwich ELISA, antibody at 0.000 ng/ml (blank, no antibody), ST2 antigen, HRP anti-ST2 mAb detection.
For assay [3], the target named is T1, 生长刺激表达基因2蛋白(ST2)抗原. The assay can be described thus: sandwich ELISA, antibody at 15.625 ng/ml captured on goat anti-mouse IgG, ST2 antigen, HRP anti-ST2 mAb detection.
In assay [4] the target is T1, 生长刺激表达基因2蛋白(ST2)抗原. Put plainly: sandwich ELISA, antibody at 7.813 ng/ml captured on goat anti-mouse IgG, ST2 antigen, HRP anti-ST2 mAb detection.
The target of assay [5] is T1, 生长刺激表达基因2蛋白(ST2)抗原. Put plainly: sandwich ELISA, antibody at 3.906 ng/ml captured on goat anti-mouse IgG, ST2 antigen, HRP anti-ST2 mAb detection.
Assay [6] addresses T1, 生长刺激表达基因2蛋白(ST2)抗原. The assay can be described thus: sandwich ELISA, antibody at 1.953 ng/ml captured on goat anti-mouse IgG, ST2 antigen, HRP anti-ST2 mAb detection.
For assay [7], the target named is T1, 生长刺激表达基因2蛋白(ST2)抗原. Put plainly: BLI, AMC sensor, antibody immobilised at 10 ug/ml, ST2 antigen in serial dilution.

On to 对照 (antibody), for which the OD450 (ref 630) in assay [1] is 1.51 OD; in assay [2], 0.046 OD; in assay [3], 0.665 OD; in assay [4], 0.37 OD; in assay [5], 0.26 OD; in assay [6] it was 0.163 OD. The molecule also came in with a dissociation constant (Kd) in assay [7] of 7.3 nM. Further, the koff in assay [7] was 0.00723 s⁻¹. The molecule further registered a kon in assay [7] of 990000 M⁻¹ s⁻¹.

B1: Anti-ST2 11F9 (antibody, V domains shown)
VH: QIQLVQSGPELKKPGETVKLSCKASGYTFTDYSIHWVKQAPGKGLKWMGWIHTETGEPTYADDFKGRFAFSLETSASTAYFQINNLRNEDTATYFCARDDGLDYWGQGTSVTVSS
VL: DVQMIQSPSSLSASLGDIVTMTCQASQDTNINLNWFQQKPGKAPELLIYDTNNLEDGVPSRFSGSRYGTDFTLTISSLEDEDMATYFCLQHSYLPLTFGAGTKLELK
B1: in assay [7], the dissociation constant Kd is 0.761 nM, the koff is 0.000745 s⁻¹ and the kon amounted to 979000 M⁻¹ s⁻¹.

The values are drawn from patent CN115703837A (DONGGUAN PENGZHI BIOTECHNOLOGY CO LTD, dated 2023).
